{"source": "patent US20210230307A1", "target": "Chicken egg white-derived lysozyme (Sigma-Aldrich) (chicken) (UniProt P00698)", "sequence (P00698 19-147)": "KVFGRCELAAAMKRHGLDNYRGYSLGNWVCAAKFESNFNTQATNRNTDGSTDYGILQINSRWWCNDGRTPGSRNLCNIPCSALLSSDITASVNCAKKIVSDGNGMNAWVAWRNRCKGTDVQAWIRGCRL", "experiment": "SPR, Biacore T200; antigen immobilized, antibody as analyte, as in Example 1"}
{"substance": "Wild-type mouse anti-lysozyme antibody of clone Hy-HEL5", "values": [{"measurement": "Kd", "result": 0.177, "unit": "nM"}]}
